According to paper PMC10354751 (Bioengineering & Translational Medicine, 2023):

Columns and labels:
[1] = target: SpyCatcher-mi3 nanoparticle; assay: SDS-PAGE of the covalent SpyTag-SpyCatcher conjugate + dynamic light scattering; cPfCSP and SpyCatcher-mi3 mixed and allowed to react overnight at 4°C; conjugate band at ~65 kDa; diameter 48 nm against 34 nm; details: scale: cPfCSP molecules per SpyCatcher-mi3 nanoparticle
[2] = target: T1, full-length recombinant PfCSP (Plasmodium falciparum, strain of the …, UniProt Q7K740); assay: ELISA; competition: 5 ng/mL mAb 2A10 pre-incubated with 0.5, 5 or 50 μg/mL of T1 or B3 peptide without cysteines, then allowed to bind to plates coated with PfCSP; signal normalised to that without peptide; details: both partners purified
T1 construct: Plasmodium falciparum circumsporozoite protein; source: E. coli, recombinant, provided by Gennova (Pune, India)
T1 sequence (Q7K740 19-374): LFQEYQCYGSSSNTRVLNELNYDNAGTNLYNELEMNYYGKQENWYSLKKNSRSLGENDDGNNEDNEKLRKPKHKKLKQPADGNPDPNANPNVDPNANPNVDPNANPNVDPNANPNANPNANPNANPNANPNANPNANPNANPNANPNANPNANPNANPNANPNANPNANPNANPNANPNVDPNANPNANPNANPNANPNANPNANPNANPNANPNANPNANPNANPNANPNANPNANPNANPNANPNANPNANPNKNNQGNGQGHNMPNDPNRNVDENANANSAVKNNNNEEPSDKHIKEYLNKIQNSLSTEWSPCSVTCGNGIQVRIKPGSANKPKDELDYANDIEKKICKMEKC

[3] = target: T2, T1 synthetic peptide (without cysteine residues) (Plasmodium falciparum, synthetic peptide); assay: as above; details: both partners purified
T2 construct: source: synthetic peptide
T2 chain: DPNANPNVDPNANPNV

[4] = target: T3, B3 synthetic peptide, (NANP)3 (without cysteine residues) (Plasmodium falciparum, synthetic peptide); assay: as above; details: both partners purified
T3 construct: three NANP repeats of the major repeat region of Plasmodium falciparum circumsporozoite protein; written out from the printed formula (NANP)3; source: synthetic peptide
T3 chain: NANPNANPNANP

Work on “chimeric PfCSP (cPfCSP) with C-terminal GPGPG spacer, SpyTag and 6x His-tag (from UniProt Q7K740 82-104; Q7K740 311-340; Q7K740 341-397)” yielded a stoichiometry N [1] of 3.2.

B1: 2A10 antibody (antibody, V domains shown)
VH: QIQLVQSGPELKKPGETVKISCKASGYTFTNYGINWVKQAPGKGLKWMGWINTITEEPTFAEEFTGRFAFSLETSASTAYLQINNLKNEDTATYFCARGSEFGRLVYWGQGASVTVSS
VL: DIQMTQTTSSLSASLGDRVTISCSASQGISNYLNWYQQKPDGTVKLLIFYTSTLYSGVPSRFSGSGSGTDYSLTISNLEPEDIATYYCQQYSRFPYVFGGGTKLEIK
notes: heavy chain gene cloned into the TGEX-HC vector; light chain gene cloned into the TGEX-LC vector; treated as one molecule; also called mAb 2A10; monoclonal antibody 2A10; source: HEK293F, transfected, purified (MabSelect SuRe)
B1: binds [2]; binds [3]; binds [4].
